Results taken from US20250101100A1 (Bristol-Myers Squibb, published 2025).

Legend:
[1] = molecular target: T1, cynomolgus monkey NKG2A on cells (cynomolgus monkey, UniProt Q68VD2 1-233); test: flow cytometry on CHO cells expressing cynomolgus NKG2A
T1 construct: whole, on cells; On transfected CHO cells or on NK cells of cynomolgus PBMC / blood; also called CHO-cyno NKG2A; CHO-cynomolgus NKG2A
Description: The ability of anti-NKG2A antibodies that bound to cynomolgus NKG2A-expressing CHO cells was assessed. As depicted in FIG. 22A, 1×10⁶ cynomolgus NKG2A-expressing CHO cells were incubated with titrating amounts of anti-NKG2A antibody (10 ug/ml) 10 for 30 minutes at 4° C. […] Cells were read fresh on the BD LSRFortessa.

[2] = molecular target: T2, human NKG2A-CD94 heterodimer (extracellular domains) (human, UniProt Q13241 32-179); test: SPR Biacore T200, 37 °C, antibody captured by anti-human Fc on C1 chip, hNKG2A-hCD94 as analyte
T2 construct: extracellular domain; also called hNKG2A-heterodimer; hNKG2A-hCD94

human NKG2A on cells [3] = molecular target: T3, human NKG2A on cells (human, UniProt P26715 1-233); test: flow cytometry, blocking of labelled HLA-E pentamer on CHO cells expressing human NKG2A
T3 construct: also called hNKG2A; CHO-hNKG2A
Description: As depicted in FIG. 20A, 1×10⁶ human NKG2A-expressing CHO cells were incubated with titrating amounts of anti-NKG2A antibody (10 ug/ml) for 30 minutes at 4° C. […] Cells were read fresh on the BD LSRFortessa.

[4] = molecular target: T2, human NKG2A-CD94 heterodimer …; test: SPR Biacore T200, 37 °C, antibody captured by anti-hFc on CM4 chip, heterodimer as analyte
Excerpt: (§1) All data were double-referenced and fitted to a 1:1 binding model using the Biacore T200 Evaluation Software version 3.1.

[5] = molecular target: T4, human NKG2C-CD94 heterodimer (extracellular domains) (human, UniProt Q13241 32-179); test: as above
T4 construct: extracellular domain; also called hNKG2C-heterodimer; hNKG2C-CD94
Excerpt: as §1

human NKG2A on cells [6] = molecular target: T3, human NKG2A on cells; test: flow cytometry on CHO cells expressing human NKG2A
human NKG2A on cells [7] = molecular target: T3, human NKG2A on cells; test: flow cytometry, blocking of labelled HLA-E pentamer on NKL cells
human NKG2A on cells [8] = molecular target: T3, human NKG2A on cells; test: flow cytometry on CHO cells expressing human NKG2A, anti-human IgG-PE
human NKG2A on cells [9] = molecular target: T3, human NKG2A on cells; test: flow cytometry on NKL cells (endogenous human NKG2A), anti-human IgG-PE
Description: Cells were washed and stained with fluorescently labeled goat anti-human IgG-PE secondary antibody for 30 minutes at 4° C. to detect the bound antibody on the cell surface. Cells were read fresh on the BD LSRFortessa.

human NKG2C on CHO cells [10] = molecular target: T5, human NKG2C on CHO cells (human, UniProt P26717 1-231); test: flow cytometry, binding to CHO cells expressing human NKG2C, anti-human IgG-PE
T5 construct: also called CHO-human NKG2C; hNKG2C
Description: As depicted in FIG. 18A, 1×10⁶ human NKG2A-expressing or human NKG2C-expressing CHO cells were incubated with titrating amounts of anti-NKG2A antibody for 30 minutes at 4° C. Cells were washed and stained with fluorescently labeled goat anti-human IgG-PE secondary antibody for 30 minutes at 4° C. to detect the bound antibody on the cell surface. Cells were read fresh on the BD LSRFortessa.

human NKG2A on cells [11] = molecular target: T3, human NKG2A on cells; test: flow cytometry, blocking of HLA-E pentamer binding to CHO cells expressing human NKG2A
human NKG2C on CHO cells [12] = molecular target: T5, human NKG2C on CHO cells; test: flow cytometry, blocking of HLA-E pentamer binding to CHO cells expressing human NKG2C
[13] = molecular target: T6, cynomolgus NKG2A-CD94-mFc (cynomolgus monkey, UniProt Q68VD2 94-233); test: SPR Biacore T200, 37 °C, Fab as analyte over NKG2A-CD94-mFc immobilized on CM4 chip
T6 construct: also called monkey NKG2A-CD94-mFc (truncated construct); cyNKG2A-CD94; not shown: mouse Fc

human NKG2C on CHO cells [14] = molecular target: T5, human NKG2C on CHO cells; test: FACS on CHO cells engineered to express human NKG2C-CD94

T3 sequence (P26715 whole entry): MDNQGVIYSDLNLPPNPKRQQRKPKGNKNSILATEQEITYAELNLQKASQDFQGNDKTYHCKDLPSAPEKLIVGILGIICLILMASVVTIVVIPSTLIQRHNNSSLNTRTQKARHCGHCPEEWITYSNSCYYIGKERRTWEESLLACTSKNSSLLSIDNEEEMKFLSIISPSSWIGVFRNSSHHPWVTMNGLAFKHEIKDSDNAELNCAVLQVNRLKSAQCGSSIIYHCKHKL
T2 sequence (chain, as listed by the source, chain 1 of 2): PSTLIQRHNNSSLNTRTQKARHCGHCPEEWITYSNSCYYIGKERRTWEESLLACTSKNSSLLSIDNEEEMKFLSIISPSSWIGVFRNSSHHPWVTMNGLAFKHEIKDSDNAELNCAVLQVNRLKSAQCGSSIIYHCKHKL
T2 sequence (Q13241 32-179, chain 2 of 2): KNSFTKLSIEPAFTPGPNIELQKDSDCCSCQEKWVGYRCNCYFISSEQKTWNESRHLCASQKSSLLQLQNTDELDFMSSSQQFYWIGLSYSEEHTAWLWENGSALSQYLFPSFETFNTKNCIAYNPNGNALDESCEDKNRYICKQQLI
T1 sequence (Q68VD2 entry or part of it): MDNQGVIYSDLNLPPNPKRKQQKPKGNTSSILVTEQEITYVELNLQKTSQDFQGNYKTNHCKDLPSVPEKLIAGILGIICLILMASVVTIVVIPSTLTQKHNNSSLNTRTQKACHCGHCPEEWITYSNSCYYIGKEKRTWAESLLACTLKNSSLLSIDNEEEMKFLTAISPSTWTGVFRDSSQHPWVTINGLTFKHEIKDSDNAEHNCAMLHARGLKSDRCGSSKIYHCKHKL
T5 sequence (P26717 other isoform, or with tags, fused parts or gaps): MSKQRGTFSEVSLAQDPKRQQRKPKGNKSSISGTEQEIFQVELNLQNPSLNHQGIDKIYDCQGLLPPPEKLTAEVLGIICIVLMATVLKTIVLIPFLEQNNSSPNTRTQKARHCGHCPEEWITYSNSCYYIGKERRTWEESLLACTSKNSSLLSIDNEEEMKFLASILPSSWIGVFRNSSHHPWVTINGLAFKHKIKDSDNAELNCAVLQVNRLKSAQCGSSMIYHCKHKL
T4 sequence (chain, as listed by the source, chain 1 of 2): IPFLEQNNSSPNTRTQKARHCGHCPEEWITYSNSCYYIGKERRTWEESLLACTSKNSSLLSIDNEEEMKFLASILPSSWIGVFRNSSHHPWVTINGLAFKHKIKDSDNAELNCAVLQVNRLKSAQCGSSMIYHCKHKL
T4 sequence (Q13241 32-179, chain 2 of 2): as the sequence (Q13241 32-179, chain 2 of 2) above
T6 sequence (Q68VD2 entry or part of it): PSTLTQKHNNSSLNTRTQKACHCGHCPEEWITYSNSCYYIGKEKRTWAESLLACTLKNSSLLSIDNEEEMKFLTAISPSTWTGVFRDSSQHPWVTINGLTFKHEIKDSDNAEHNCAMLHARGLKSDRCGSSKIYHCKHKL

B1: NKG2A.11 antibody (antibody, human IgG1, kappa)
heavy: EVQLVESGGGLVKPGGSLRLSCAASGFTFSSHSMNWVRQAPGKGLEWVSAISSSSSYIYYADSVKGRFTISRDNAKNSLYLQMNSLRAEDTAVYYCAREEWGLPFDYWGQGTLVTVSSASTKGPSVFPLAPSSKSTSGGTAALGCLVKDYFPEPVTVSWNSGALTSGVHTFPAVLQSSGLYSLSSVVTVPSSSLGTQTYICNVNHKPSNTKVDKRVEPKSCDKTHTCPPCPAPEAEGAPSVFLFPPKPKDTLMISRTPEVTCVVVDVSHEDPEVKFNWYVDGVEVHNAKTKPREEQYNSTYRVVSVLTVLHQDWLNGKEYKCKVSNKALPAPIEKTISKAKGQPREPQVYTLPPSREEMTKNQVSLTCLVKGFYPSDIAVEWESNGQPENNYKTTPPVLDSDGSFFLYSKLTVDKSRWQQGNVFSCSVMHEALHNHYTQKSLSLSPG
light: AIQLTQSPSSLSASVGDRVTITCRASQGIPSALAWYQQKPGKAPKLLIYDASSLKSGVPSRFSGSGSGTDFTLTISSLQPEDFATYYCQQFNSYPLTFGQGTRLEIKRTVAAPSVFIFPPSDEQLKSGTASVVCLLNNFYPREAKVQWKVDNALQSGNSQESVTEQDSKDSTYSLSSTLTLSKADYEKHKVYACEVTHQGLSSPVTKSFNRGEC
notes: Human IgG1.3f, kappa; also called 13F3.A4 VH I107T, VK N30P; 13F3 VH I107T VK N30P
EC50 [1]: 1.4 nM

B2: monalizumab (antibody, V domains shown)
VH: QVQLVQSGAEVKKPGASVKVSCKASGYTFTSYWMNWVRQAPGQGLEWMGRIDPYDSETHYAQKLQGRVTMTTDTSTSTAYMELRSLRSDDTAVYYCARGGYDFDVGTLYWFFDVWGQGTTVTVSS
VL: DIQMTQSPSSLSASVGDRVTITCRASENIYSYLAWYQQKPGKAPKLLIYNAKTLAEGVPSRFSGSGSGTDFTLTISSLQPEDFATYYCQHHYGTPRTFGGGTKVEIKR
Half-life of Antibody/Analyte Complex [2]: 3 to 4 s
Kd [2]: 26 nM
koff [2]: 0.2 s⁻¹
kon [2]: 7e+06 M⁻¹ s⁻¹

B3: 2G6.C2 antibody (antibody, human IgG1, kappa, V domains shown)
VH: EVQLVESGGGLVQRGGSLRLSCAASGFTFSSNSMNWIRQAPGKGLEWVAHISSGSSFIYYADSVKGRFTISRDNAKNSLSLQMNSLRDEDTAVYYCARDDWGIDAFNIWGQGTMVTVSS
VL: EIVLTQSPATLSLSPGERATLSCRASQSVSSSLAWYQQKPGQAPRLLIYDASNRATGIPARFSGSGSGTDFTLTISSLEPEDFAVYYCQQRSNWIFTFGPGTKVDIKR
notes: Hybridoma antibody
IC50 (human NKG2A on cells [3]): 1.3 nM
Half-life of Antibody/Analyte Complex [4]: 19 s
Kd [4]: 91 nM
koff [4]: 0.036 s⁻¹
kon [4]: 400000 M⁻¹ s⁻¹
Half-life of Antibody/Analyte Complex [5]: 23 s
Kd [5]: 1100 nM
koff [5]: 0.03 s⁻¹
kon [5]: 28000 M⁻¹ s⁻¹
EC50 [1]: 0.6 nM
EC50 (human NKG2A on cells [6]): 1 nM

B4: 1G5.B2 antibody (antibody, human IgG1, kappa, V domains shown)
VH: QVQLVESGGGVVQPGRSLRLSCAASGFTFSDYAMHWVRQTPGRGLEWLTFISYDGSNKYHADSVKGRFTISRDNSKNTLFLQMNSLRAEDTAVYYCARDSWDRGYFDLWGRGTLVTVSS
VL: EIVLTQSPATLSLSPGERATLSCRASQSVSSYLAWYQQKPGQAPRLLIYDASNRATGIPARFSGSGSGTDFTLTISSLEPEDFAVYYCQQRSNWWTFGQGTKVEIKR
notes: Hybridoma antibody; printed as IG5.B2 in two paragraphs; also called IG5.B2
IC50 (human NKG2A on cells [7]): 0.4 nM
EC50 (human NKG2A on cells [8]): 0.6 nM
IC50 (human NKG2A on cells [3]): 0.7 nM
EC50 (human NKG2A on cells [9]): 0.3 nM

B5: 11H9.A1 antibody (antibody, human IgG1, kappa, V domains shown)
VH: EVQLVESGGGLVKPGGSLRLSCAASGFTFSSYSMNWVRQAPGKGLEWVSSISSSSSYIYYADSVKGRFTISRDNAKNSLYLQMNSLRAEDTAVYYCARLLWFGEIFDYWGQGTLVTVSS
VL: AIQLTQSPSSLSASVGDRVTITCRASQGISSALAWYQQKPGKAPKLLIYDASSLKSGVPSRFSGSGSGTDFTLTISSLQPEDFATYYCQQFNSYPITFGQGTRLEIKR
notes: Hybridoma antibody; also called 11H9.A4
IC50 (human NKG2A on cells [7]): 0.1 nM
EC50 (human NKG2A on cells [8]): 0.7 nM
EC50 (human NKG2C on CHO cells [10]): 9 nM
IC50 (human NKG2A on cells [11]): 1 nM
IC50 (human NKG2C on CHO cells [12]): 54 nM
EC50 (human NKG2A on cells [9]): 0.1 nM

B6: NKG2A.14 antibody (antibody, human IgG1, kappa, V domains shown)
VH: EVQLVESGGGLVKPGGSLRLSCAASGFTFSSHSMNWVRQAPGKGLEWVSAISSSSSYIYYADSVKGRFTISRDNAKNSLYLQMNSLRAEDTAVYYCAREEWGLPFDYWGQGILVTVSS
VL: AIQLTQSPSSLSASVGDRVTITCRASQGIQSALAWYQQKPGKAPKLLIYDASSLKSGVPSRFSGSGSGTDFTLTISSLQPEDFATYYCQQFNSYPLTFGQGTRLEIKR
notes: IgG1.3f; also called 13F3.A4 VK-N30Q
EC50 (human NKG2A on cells [8]): 0.1 nM
IC50 (human NKG2A on cells [3]): 0.2 nM

B7: NKG2A.5 antibody (antibody, V domains shown)
VH: EVQLVESGGGLVKPGGSLRLSCAASGFTFSSYSMNWVRQAPGKGLEWVSSISSSSSYIYYADSVKGRFTISRDNAKNSLYLQMNSLRAEDTAVYYCARLLWFGEIFDYWGQGTLVTVSS
VL: AIQLTQSPSSLSASVGDRVTITCRASQGISSALAWYQQKPGKAPKLLIYDASSLKSGVPSRFSGSGSGTDFTLTISSLQPEDFATYYCQQFNSYPITFGQGTRLEIK
notes: also called recombinant 11H9.A4
EC50 (human NKG2A on cells [8]): 0.3 nM
IC50 (human NKG2A on cells [3]): 0.3 nM

B8: NKG2A.10 antibody (antibody, IgG1, V domains shown)
VH: EVQLVESGGGLVKPGGSLRLSCAASGFTFSSHSMNWVRQAPGKGLEWVSAISSSSSYIYYADSVKGRFTISRDNAKNSLYLQMNSLRAEDTAVYYCAREEWGLPFDYWGQGTLVTVSS
VL: AIQLTQSPSSLSASVGDRVTITCRASQGIQSALAWYQQKPGKAPKLLIYDASSLKSGVPSRFSGSGSGTDFTLTISSLQPEDFATYYCQQFNSYPLTFGQGTRLEIKR
notes: IgG1.3f; also called 13F3.A4 VH-I107T, VK-N30Q
EC50 (human NKG2A on cells [8]): 0.1 nM
IC50 (human NKG2A on cells [3]): 0.05 nM
EC50 [1]: 1.3 nM

B9: NKG2A.12 antibody (antibody, human IgG1, kappa, V domains shown)
VH: EVQLVESGGGLVKPGGSLRLSCAASGFTFSSHSMNWVRQAPGKGLEWVSAISSSSSYIYYADSVKGRFTISRDNAKNSLYLQMNSLRAEDTAVYYCAREEWGLPFDYWGQGTLVTVSS
VL: AIQLTQSPSSLSASVGDRVTITCRASQGINSALAWYQQKPGKAPKLLIYDASSLKSGVPSRFSGSGSGTDFTLTISSLQPEDFATYYCQQFNSYPLTFGQGTRLEIKR
notes: IgG1.3f; also called 13F3.A4 VH-I107T
EC50 (human NKG2A on cells [8]): 0.2 nM
IC50 (human NKG2A on cells [3]): 0.1 nM
EC50 [1]: 1.2 nM

B10: NKG2A.15 antibody (antibody, human IgG1, kappa)
heavy: EVQLVESGGGLVKPGGSLRLSCAASGFTFSSHSMNWVRQAPGKGLEWVSAISSSSSYIYYADSVKGRFTISRDNAKNSLYLQMNSLRAEDTAVYYCAREEWGLPFDYWGQGILVTVSSASTKGPSVFPLAPSSKSTSGGTAALGCLVKDYFPEPVTVSWNSGALTSGVHTFPAVLQSSGLYSLSSVVTVPSSSLGTQTYICNVNHKPSNTKVDKRVEPKSCDKTHTCPPCPAPEAEGAPSVFLFPPKPKDTLMISRTPEVTCVVVDVSHEDPEVKFNWYVDGVEVHNAKTKPREEQYNSTYRVVSVLTVLHQDWLNGKEYKCKVSNKALPAPIEKTISKAKGQPREPQVYTLPPSREEMTKNQVSLTCLVKGFYPSDIAVEWESNGQPENNYKTTPPVLDSDGSFFLYSKLTVDKSRWQQGNVFSCSVMHEALHNHYTQKSLSLSPGK
light: AIQLTQSPSSLSASVGDRVTITCRASQGIPSALAWYQQKPGKAPKLLIYDASSLKSGVPSRFSGSGSGTDFTLTISSLQPEDFATYYCQQFNSYPLTFGQGTRLEIKRTVAAPSVFIFPPSDEQLKSGTASVVCLLNNFYPREAKVQWKVDNALQSGNSQESVTEQDSKDSTYSLSSTLTLSKADYEKHKVYACEVTHQGLSSPVTKSFNRGEC
notes: IgG1.3f; also called 13F3.A4 VK-N30P
EC50 (human NKG2A on cells [8]): 0.1 nM
IC50 (human NKG2A on cells [3]): 0.1 nM

B11: NKG2A.9 Fab (Fab, V domains shown)
VH: EVQLVESGGGLVKPGGSLRLSCAASGFTFSSHSMNWVRQAPGKGLEWVSAISSSSSYIYYADSVKGRFTISRDNAKNSLYLQMNSLRAEDTAVYYCAREEWGLPFDYWGQGTLVTVSS
VL: AIQLTQSPSSLSASVGDRVTITCRASQGISSALAWYQQKPGKAPKLLIYDASSLKSGVPSRFSGSGSGTDFTLTISSLQPEDFATYYCQQFNSYPLTFGQGTRLEIK
notes: Fab of NKG2A.9
KD ratio (cy/h) [13]: ~26
Kd [13]: 1600 nM

B12: P1-069366 antibody (antibody, V domains shown)
VH: QVQLVESGGGVVQPGRSLRLSCAASGFTFSSYAMHWVRQAPGKGLEWVAVISYDGSYKEYADSVKGRFTISRDSSKNTLYLQMNSLRAEDTAVYYCARAQISEYFDYWGQGTLVTVSS
VL: DIQMTQSPSSLSASVGDRVTITCRASQGISSWLAWYQQKPEKAPKSLIYAASSLQSGVPSRFSGSGSGTDFTLTISSLQPEDFATYYCQQYNSYPLTFGQGTKVEIKR
notes: From the immune antibody library (yeast display); also called P10069366
binding result (human NKG2C on CHO cells [14]): no binding
